Laboratory results as given in patent publication US20250188139A1 (published 2025).
Changes are numbered by the printed parent chain.

T1: Human VEGFR-3 extracellular domain (amino acids 25-329), AviTag, hexahistidine tag, biotinylated (human, UniProt P35916 25-329, biotinylated with BirA ligase (AviTag))
T1 chain (part 1 of 2): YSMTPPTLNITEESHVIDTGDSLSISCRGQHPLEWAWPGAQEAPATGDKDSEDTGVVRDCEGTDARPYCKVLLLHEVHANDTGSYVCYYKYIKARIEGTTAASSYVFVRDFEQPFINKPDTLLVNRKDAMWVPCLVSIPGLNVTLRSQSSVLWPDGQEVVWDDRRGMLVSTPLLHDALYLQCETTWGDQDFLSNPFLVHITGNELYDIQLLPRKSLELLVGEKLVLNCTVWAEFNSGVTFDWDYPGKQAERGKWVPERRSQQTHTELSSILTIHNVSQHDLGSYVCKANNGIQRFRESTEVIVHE
T1 chain (part 2 of 2): HHHHHH

B1: Clone 15 (protein)
chain: NTEILKSIDNEWRKTQCMPREVAIDVGKEFGVATNTFFKPPCVSVYRCGGCCISEGLQCMNTSTSYLSKTLFEITVPISQGPKPVTISFANHTSCRCMSKL
B2: WT (ligand)
chain: B1 chain with A23C, V32A, I53N, S65G, I78L
B3: Clone 19 (protein)
chain: B1 chain with I53N, S54G, I78L
B4: Clone 10 (protein)
chain: B1 chain with I53Q, S54G
B5: Clone 31 (protein)
chain: B1 chain with I53H, I78L
B6: Clone 9 (protein)
chain: B1 chain with I53Q
B7: Clone 39 (protein)
chain: B1 chain with S54R, I78L
B8: WT VEGFC (protein)
chain: B1 chain with A23C, I53N, I78L
B9: Clone 21 (protein)
chain: B1 chain with I53N, S54G
B10: Clone 13 (protein)
chain: B1 chain with I78L
B11: Clone 7 (protein)
chain: B1 chain with I53Q, I78L
B12: Clone 8 (protein)
chain: B1 chain with I53Q, S54G, I78L
B13: Clone 14 (protein)
chain: B1 chain with S54G, I78L
B14: Clone 16 (protein)
chain: B1 chain with S54G

What was measured:
[1] = biological target: T1, Human VEGFR-3 extracellular domain …; assay: yeast display flow cytometry binding
VEGFR3 = assay: SPR
VEGFR2 = assay: SPR

Binder | EC50 [1] [nM] | Kd (VEGFR3) [nM] | Kd (VEGFR2) [nM]
B1 | 21.5 | – | –
B2 | – | 0.0107 | 0.227
B3 | 51.3 | – | –
B4 | 65.5 | – | –
B5 | 94.5 | – | –
B6 | 65.7 | – | –
B7 | 104 | – | –
B8 | 34.8 | – | –
B9 | 44.8 | – | –
B10 | 32.3 | – | –
B11 | 71 | – | –
B12 | 124 | – | –
B13 | 74.5 | – | –
B14 | 36.8 | – | –
